Target: YFP-CaM (human, UniProt P0DP23 2-149)
Test: BRET titration curves in live HEK293T cells

binding result: binds
B1: TRPV1-Luc (receptor)
chain: MKKWSSTDLGAAADPLQKDTCPDPLDGDPNSRPPPAKPQLSTAKSRTRLFGKGDSEEAFPVDCPHEEGELDSCPTITVSPVITIQRPGDGPTGARLLSQDSVAASTEKTLRLYDRRSIFEAVAQNNCQDLESLLLFLQKSKKHLTDNEFKDPETGKTCLLKAMLNLHDGQNTTIPLLLEIARQTDSLKELVNASYTDSYYKGQTALHIAIERRNMALVTLLVENGADVQAAAHGDFFKKTKGRPGFYFGELPLSLAACTNQLGIVKFLLQNSWQTADISARDSVGNTVLHALVEVADNTADNTKFVTSMYNEILMLGAKLHPTLKLEELTNKKGMTPLALAAGTGKIGVLAYILQREIQEPECRHLSRKFTEWAYGPVHSSLYDLSCIDTCEKNSVLEVIAYSSSETPNRHDMLLVEPLNRLLQDKWDRFVKRIFYFNFLVYCLYMIIFTMAAYYRPVDGLPPFKMEKTGDYFRVTGEILSVLGGVYFFFRGIQYFLQRRPSMKTLFVDSYSEMLFFLQSLFMLATVVLYFSHLKEYVASMVFSLALGWTNMLYYTRGFQQMGIYAVMIEKMILRDLCRFMFVYIVFLFGFSTAVVTLIEDGKNDSLPSESTSHRWRGPACRPPDSSYNSLYSTCLELFKFTIGMGDLEFTENYDFKAVFIILLLAYVILTYILLLNMLIALMGETVNKIAQESKNIWKLQRAITILDTEKSFLKCMRKAFRSGKLLQVGYTPDGKDDYRWCFRVDEVNWTTWNTNVGIINEDPGNCEGVKRTLSFSLRSSRVSGRHWKNFALVPLLREASARDRQSAQPEEVYLRQFSGSLKPEDAEVFKSPAASGEKVPVNSGGGGS
notes: whole, on cells; BRET donor fusion, Luc at the C-terminus of TRPV1; transiently expressed in live HEK293T cells; also called hTRPV1-Luc; not shown: Renilla Luciferase II (Luc, Luc2, a mutant of Renilla reniformis luciferase)

— patent US20190353647A1 (UNIVERSITE DE BORDEAUX, published 2019)
